Patent US20260078416A1, “ORTHOGONAL METABOLIC FRAMEWORK FOR ONE-CARBON UTILIZATION” (Mojia Biotech Pte. Ltd., priority 2021, published 2026)

B1: JGI15: HACS variant; GenBank HAK63664.1 (protein)
chain: MAKSEGKVNGATLMARALQQQGVQYMFGIVGFPVIPIAIAAQREGITYIGMRNEQSASYAAQAASYLTGRPQACLVVSGPGVVHALAGLANAQVNCWPMLLIGGASAIEQNGMGAFQEERQVLLASPLCKYAHQVERPERIPYYVEQAVRSALFGRPGAAYLDMPDDVILGEVEEAAVRPAATVGEPPRSLAPQENIEAALDALQSAKRPLVIVGKGMAWSRAENEVRQFIERTRLPFLATPMGKGVMPDDHPLSVGGARSHALQEADLVFLLGARFNWILHFGLPPRYSKDVRVIQLDLSAEEIGNNRQAEVALVGDGKAIVGQLNQALSSRQWFYPAETPWREAIAAKIAGNQAAVAPMIADNTSPMNYYRVYRDIAARLPRNAIIVGEGANTMDIGRTQMPNFEPRSRLDAGSYGTMGIGLGFAVAAAAVHPGRPVIAVQGDSAFGFSGMEFETAARYGMPIKVIILNNGGIGMGSPAPRDGQPGMPHALSHDARYERIAEAFGGAGFYVTDSAELGPALDAAMAFKGPAIVNIKIAATADRKPQQFNWHG
B2: JGI20: HACS variant; GenBank PWB41796.1 (protein)
chain: MGQITGAQIVARALKQQGVEYMFGIVGIPVIPIAMFAQREGIKFYGFRNEQSASYAAAAVGYLTGRPGVCLGVSGPGMIHGVAGMANAWSNCWPMILIGGANDSYQNGQGAFQEAPQIEAARPFAKYCARPDSLARLPFYVEQAVRTSIYGRPGAVYLDLPGDIITGAMEEEDVHFPPRCPDAPRMMAPQESIDAAMAALKSAERPLVIVGKGAAYSRAENEVREFLETTQLPYLASPMGKGVMPDDHPLSIAPARSAALLGADVILLMGARLNWMMHFGHPPRFDPKVRVIQMDISAEEIGTNVPTEVALVGDAKAITTQLNASLKQQPWQYPSETTWWTGLRKKIDENGATVAEMMADESVPMSYYRVYREIRDLIPNDAIIQNEGASTMDIGRTLMPNFLPRHRLDAGSFGTMGVGLGQAIAAAAVHPDKHVFCIEGDSAFGFSGMEVETAARYGMKNITFIIINNNGIGGGPDTLDPTRVPPSAYTPNAHYEKMAEIYGGKGYFVTEPSQLRPALEEAIKADKPAIVNIMISATSQRKPQQFAWLTR

Tests used:
[1] = In vitro kinetic assay of purified HACS variants; substrate acetone; format: biochemical
Method: The kinetic assay was performed with a coupled reaction providing formyl-CoA from formate catalyzed by CoA transferase CaAbfT using acetyl-CoA as a CoA donor.
In vitro kinetic assay was comprised of 100 mM KPi pH 6.9, 10 mM MgCl2, 0.15 mM TPP, 2 mM acetyl-CoA, 1 μM CaAbfT, 0.25 μM HACS variants, and 20 mM sodium formate. Reactions were incubated at room temperature for 3 min to convert formate to formyl-CoA, and then specific concentration of aldehyde (specifically acetaldehyde or propionaldehyde here) was added to the reaction. After incubating another 3 min, 1/20 of the reaction volume of 10 M NaOH solution was added to terminate the reactions. After 30 min hydrolysis, 1/20 of the reaction volume of 10 N H2SO4 was added to neutralize the pH. Samples were centrifuged at 20817×g for 15 minutes and the supernatant analyzed by GC-MS as described below.
For this analysis, 0.15 of the reaction volume of internal standard methyl succinate was added to the samples. The resulting sample was extracted into 4 mL ethyl acetate by vigorous vortexing for 20 min. […] Samples were analyzed by GC (1 μL injection with a 20:1 split ratio) using helium as the carrier gas at a flowrate of 1.5 mL/min and the following temperature profile: initial 90° C. for 3 min; ramp at 15° C./min to 170° C.; ramp at 20° C./min to 300° C. and hold for 8 min. […]

[2] = In vitro condensation of methyl ketones with formyl-CoA using purified enzymes; format: biochemical; settings: 100 mM methyl ketone, 20 mM formate, 30° C., 24 hours, GC-MS
Method: The formyl-CoA generation catalyzed by CoA transferase CaAbfT and condensation catalyzed by HACS JGI15 is identical to the examples described above (FIG. 38A).
The enzymes CoA transferase CaAbfT and HACS JG115 were overexpressed and purified as described above. In vitro purified enzyme reactions for condensation of methyl ketone and formyl-CoA were comprised of 100 mM KPi pH 6.9, 10 mM MgCl2, 0.15 mM TPP, 2 mM acetyl-CoA, 1 μM JGI15, 2 μM CaAbfT, 20 mM formate and 100 mM tested methyl ketones. Reactions were incubated at 30° C. for 24 hours unless otherwise specified.
For this analysis, samples containing acyl-CoAs were first treated with 1/20 of the reaction volume of 10 M NaOH solution was added to terminate the reactions. After 30 min hydrolysis, 1/20 of the reaction volume of 10 N H2SO4 was added to improve the efficiency of acid extraction. The resulting sample was extracted into 4 mL ethyl acetate by vigorous vortexing for 90 seconds. The organic phase was separated and evaporated to dryness under a stream of nitrogen. […] Samples were analyzed by GC (1 μL injection with a 20:1 split ratio) using helium as the carrier gas at a flowrate of 1.5 mL/min and the following temperature profile: initial 90° C. for 3 min; ramp at 15° C./min to 170° C.; ramp at 20° C./min to 300° C. and hold for 8 min. […]

[3] = tested on: tartronate production from glyoxylate and formate; assay: HACS screening with glyoxylate and formate (tartronate productivity); format: cell-based, E. coli; settings: 5 mM glyoxylate and 20 mM formate, first round
Text: We used 2-hydroxyacid productivity per cell density (μM/OD600) as indicator of HACS activity. 2-Hydroxyacids can be produced co-feeding various aldehydes and formic acid (formate) as carbon source in the presence of active HACS variant and acyl-CoA transferase from Clostridium aminobutyricum (CaAbfT). CaAbfT is shown to be capable of catalyzing reaction from formate to formyl-CoA (Nattermann, M., et al. ACS Catal 11 (9): 5396-5404 (2021)). HACS condenses aldehyde and formyl-CoA to form 2-hydroxyacyl-CoA, which can then be hydrolyzed to 2-hydroxyacid via native thioesterase activities (FIG. 31A).
For the in vivo prototyping, we engineered vectors to independently control expression of HACS variants and CaAbfT, with HACS under control of the IPTG-inducible T7 promoter in pCDFDuet-1 and CaAbfT under control of a cumate-inducible T5 promoter in pETDuet-1 (FIG. 31B) and transformed them into the engineered strain of E. coli described in EXAMPLE 3.
The HACS variants were screened for 2-hydroxyacid production using the high throughput screening platform as described in EXAMPLE 3 by co-feeding 5 mM aldehyde and 20 mM formate. The cells were harvested after 1 hour by centrifugation and the supernatant analyzed by HPLC (as described in EXAMPLE 2) or SoGO method.
We used tartronic acid (tartronate) productivity per cell density (uM tartronate/OD600) as indicator of HACS activity. […]

Molecule	Kcat, app [1]	condensation of methyl ketones with formyl-CoA [2]	better tartronate productivity compared to other HACS variants [3]
B1	6.8 s⁻¹	could catalyze the condensation of tested ketones	
B2			30%
